According to patent US20260317411 (published 2026):

T1: VEGF (UniProt P15692)
T1 chain: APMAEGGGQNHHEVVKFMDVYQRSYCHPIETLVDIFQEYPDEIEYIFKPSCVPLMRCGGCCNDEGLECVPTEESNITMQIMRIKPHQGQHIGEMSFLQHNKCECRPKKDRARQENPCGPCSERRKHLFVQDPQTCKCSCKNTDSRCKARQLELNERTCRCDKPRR


Target: T1, VEGF
Test: SPR

| Binder | Kd [pM] |
| --- | --- |
| scFv1 (antibody) DIQLTQSPSSLSASVGDRVTITCSASQDISNYLNWYQQKPGKAPKVLIYFTSSLHSGVPSRFSGSGSGTDFTLTISSLQPEDEATYYCQQYSTVPWTFGQGTKVEIKGGGSGGGSGGGSGGGSGGGSEVQLVESGGGLVQPGGSLRLSCAASGYDFTHYGMNWVRQAPGKGLEWVGWINTYTGEPTYAADFKRRFTFSLDTSKSTAYLQMNSLRAEDTAVYYCAKYPYYYGTSHWYFDVWGQGTLVTVSS | 20.5 |
| scFv3 (antibody) DIQLTQSPSSLMASVGDRVTITCSASQDISNYLNWYQQKPGKAPKVLIYFTSSLHSGVPSRFSGSGSGTDFTLTISSLQPEDEATYYCQQYSTVPWTFGQGTKVEIKGGGSGGGSGGGSGGGSGGGSEVQLVESGGGLVQPGGSLRLSCAASGYDFTHYGMNWVRQAPGKGLEWVGWINTYTGEPTYAADFKRRFTFSLDTSKSTAYLQMNSLRAEDTAVYYCAKYPYYYGTSHWYFDVWGQGTLVTVSS | 23.6 |
